To fix the notation:
B1: Dual specificity tyrosine-phosphorylation-regulated kinase mbk-2 (Caenorhabditis elegans), Q9XTF3-2 (parent)
chain: MTLFEPSTSGNRMGYRGSSNSSSGVGSGGSGSLMTQSIGGPNKHLSASHSTLNTASTHDMMHSKIPKSPSNESLSRSHTSSSGGSQGGHNSNSGSNSGFRPEDAVQTFGAKLVPFEKNEIYNYTRVFFVGSHAKKQAGVIGGANNGGYDDENGSYQLVVHDHIAYRYEVLKVIGKGSFGQVIKAFDHKYQQYVALKLVRNEKRFHRQADEEIRILDHLRRQDSDGTHNIIHMLDYFNFRNHKCITFELLSINLYELIKRNKFQGFSLMLVRKFAYSMLLCLDLLQKNRLIHCDLKPENVLLKQQGRSGIKVIDFGSSCFDDQRIYTYIQSRFYRAPEVILGTKYGMPIDMWSLGCILAELLTGYPLLPGEDENDQLALIIELLGMPPPKSLETAKRARTFITSKGYPRYCTATSMPDGSVVLAGARSKRGKMRGPPASRSWSTALKNMGDELFVDFLKRCLDWDPETRMTPAQALKHKWLRRRLPNPPRDGLESMGGLADHEVCFIIF
partner: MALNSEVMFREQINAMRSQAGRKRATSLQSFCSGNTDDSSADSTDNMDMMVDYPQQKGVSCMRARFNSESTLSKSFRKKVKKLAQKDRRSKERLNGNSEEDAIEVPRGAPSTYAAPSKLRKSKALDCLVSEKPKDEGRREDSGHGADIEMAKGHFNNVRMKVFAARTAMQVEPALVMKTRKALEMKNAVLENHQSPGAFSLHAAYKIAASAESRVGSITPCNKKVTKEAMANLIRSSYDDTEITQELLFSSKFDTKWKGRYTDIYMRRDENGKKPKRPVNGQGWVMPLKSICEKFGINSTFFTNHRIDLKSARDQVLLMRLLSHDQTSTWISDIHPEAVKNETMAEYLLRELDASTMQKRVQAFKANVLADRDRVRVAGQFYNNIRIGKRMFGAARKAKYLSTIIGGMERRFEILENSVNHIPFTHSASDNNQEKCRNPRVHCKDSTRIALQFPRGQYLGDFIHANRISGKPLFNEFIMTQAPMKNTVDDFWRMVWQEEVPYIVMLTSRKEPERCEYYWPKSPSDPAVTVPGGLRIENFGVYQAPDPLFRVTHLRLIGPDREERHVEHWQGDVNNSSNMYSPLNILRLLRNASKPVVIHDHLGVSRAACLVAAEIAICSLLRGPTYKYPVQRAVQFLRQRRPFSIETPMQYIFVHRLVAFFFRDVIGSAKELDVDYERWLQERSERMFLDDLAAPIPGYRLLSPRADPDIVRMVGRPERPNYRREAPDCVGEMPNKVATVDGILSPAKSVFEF
B2: Dual specificity tyrosine-phosphorylation-regulated kinase mbk-2 (Caenorhabditis elegans), Q9XTF3-2 (parent)
chain: B1 chain
partner: B1 partner with R139S, N157D, T255S, M344L, K444R, T739A

Where a chain is given by its changes, count along the chain named.

Variants of B1 are the subject of the first test. The following applies: with egg4_caeel egg-4, O01767.
MTLFEPSTSGNRMGYRGSSNSSSGVGSGGSGSLMTQSIGGPNKHLSASHSTLNTASTHDMMHSKIPKSPSNESLSRSHTSSSGGSQGGHNSNSGSNSGFRPEDAVQTFGAKLVPFEKNEIYNYTRVFFVGSHAKKQAGVIGGANNGGYDDENGSYQLVVHDHIAYRYEVLKVIGKGSFGQVIKAFDHKYQQYVALRLVRNEKRFHRQADEEIRILDHLRRQDSDGTHNIIHMLDYFNFRNHKCITFELLSINLYELIKRNKFQGFSLMLVRKFAYSMLLCLDLLQKNRLIHCDLKPENVLLKQQGRSGIKVIDFGSSCFDDQRIYTYIQSRFYRAPEVILGTKYGMPIDMWSLGCILAELLTGYPLLPGEDENDQLALIIELLGMPPPKSLETAKRARTFITSKGYPRYCTATSMPDGSVVLAGARSKRGKMRGPPASRSWSTALKNMGDELFVDFLKRCLDWDPETRMTPAQALKHKWLRRRLPNPPRDGLESMGGLADHEVCFIIF [K196R]: the “effect of a mutation on the interaction” value was “decreasing interaction”.
On the same count and under the same terms, then MTLFEPSTSGNRMGYRGSSNSSSGVGSGGSGSLMTQSIGGPNKHLSASHSTLNTASTHDMMHSKIPKSPSNESLSRSHTSSSGGSQGGHNSNSGSNSGFRPEDAVQTFGAKLVPFEKNEIYNYTRVFFVGSHAKKQAGVIGGANNGGYDDENGSYQLVVHDHIAYRYEVLKVIGKGSFGQVIKAFDHKYQQYVALKLVRNEKRFHRQADEEIRILDHLRRQDSDGTHNIIHMLDYFNFRNHKCITFELLSINLYELIKRNKFQGFSLMLVRKFAYSMLLCLDLLQKNRLIHCDLKPENVLLKQQGRSGIKVIDFGSSCFDDQRIFTFIQSRFYRAPEVILGTKYGMPIDMWSLGCILAELLTGYPLLPGEDENDQLALIIELLGMPPPKSLETAKRARTFITSKGYPRYCTATSMPDGSVVLAGARSKRGKMRGPPASRSWSTALKNMGDELFVDFLKRCLDWDPETRMTPAQALKHKWLRRRLPNPPRDGLESMGGLADHEVCFIIF [Y325F;Y327F], with “decreasing interaction”.

Variants of B2 are the subject of a further test. Particulars: with egg5_caeel egg-5, O61789.
Regarding MTLFEPSTSGNRMGYRGSSNSSSGVGSGGSGSLMTQSIGGPNKHLSASHSTLNTASTHDMMHSKIPKSPSNESLSRSHTSSSGGSQGGHNSNSGSNSGFRPEDAVQTFGAKLVPFEKNEIYNYTRVFFVGSHAKKQAGVIGGANNGGYDDENGSYQLVVHDHIAYRYEVLKVIGKGSFGQVIKAFDHKYQQYVALKLVRNEKRFHRQADEEIRILDHLRRQDSDGTHNIIHMLDYFNFRNHKCITFELLSINLYELIKRNKFQGFSLMLVRKFAYSMLLCLDLLQKNRLIHCDLKPENVLLKQQGRSGIKVIDFGSSCFDDQRIFTFIQSRFYRAPEVILGTKYGMPIDMWSLGCILAELLTGYPLLPGEDENDQLALIIELLGMPPPKSLETAKRARTFITSKGYPRYCTATSMPDGSVVLAGARSKRGKMRGPPASRSWSTALKNMGDELFVDFLKRCLDWDPETRMTPAQALKHKWLRRRLPNPPRDGLESMGGLADHEVCFIIF [Y325F;Y327F], the “effect of a mutation on the interaction” value is on record as “decreasing interaction”.
Same read-out and setting: the same measure for MTLFEPSTSGNRMGYRGSSNSSSGVGSGGSGSLMTQSIGGPNKHLSASHSTLNTASTHDMMHSKIPKSPSNESLSRSHTSSSGGSQGGHNSNSGSNSGFRPEDAVQTFGAKLVPFEKNEIYNYTRVFFVGSHAKKQAGVIGGANNGGYDDENGSYQLVVHDHIAYRYEVLKVIGKGSFGQVIKAFDHKYQQYVALRLVRNEKRFHRQADEEIRILDHLRRQDSDGTHNIIHMLDYFNFRNHKCITFELLSINLYELIKRNKFQGFSLMLVRKFAYSMLLCLDLLQKNRLIHCDLKPENVLLKQQGRSGIKVIDFGSSCFDDQRIYTYIQSRFYRAPEVILGTKYGMPIDMWSLGCILAELLTGYPLLPGEDENDQLALIIELLGMPPPKSLETAKRARTFITSKGYPRYCTATSMPDGSVVLAGARSKRGKMRGPPASRSWSTALKNMGDELFVDFLKRCLDWDPETRMTPAQALKHKWLRRRLPNPPRDGLESMGGLADHEVCFIIF [K196R]: “decreasing interaction”.

The values are drawn from IntAct's records for PubMed 19879842.
